In patent US20210260173A1:

Molecular target: IgG-type of BCR (membrane-bound IgG) on Nu-DUL-1 cells
Assay: cell-based or functional assay

In the case of “Immunoglobulin G-degrading enzyme of S. pyogenes (IdeS)”, the loss of anti-Fab signal on Nu-DUL-1 cells (flow cytometry) after IdeS treatment is reported as greater than 4 µg/mL and the membrane bound IgG on Nu-DUL-1 cells one hour after IdeS treatment and wash (flow cytometry, anti-Fab) is reported as greater than 4 µg/mL.
